Experimental data from patent publication US20240325520A1.
Where two headings read alike, the source gives them in different places.

Assays:
[1] = target: RBD protein (K417N, N501Y, E484K)
[2] = target: RBD protein (L452R, E484Q)
[3] = target: RBD protein (L452R, E484Q); remark: listed apart in the source

For “MM43 neutralizing monoclonal antibody (Beijing Sino Biological Ltd. Co., article number 40591-MM43)”, the EC50 (read off the curve) [1] was 0.7 µg/mL.
In the case of “MM57 neutralizing monoclonal antibody (Beijing Sino Biological Ltd. Co., article number 40592-MM57)”, the EC50 (read off the curve) [2] was 0.2 µg/mL.
“R001 neutralizing monoclonal antibody (Beijing Sino Biological Ltd. Co., article number 40592-R001)” gave an EC50 (read off the curve) [3] of 0.2 µg/mL.
